Where no end group is shown, it is not given here. The star is where a group is joined. Palmitoyl = CCCCCCCCCCCCCCCC(=O)*
T1: PTH receptor 1 (PTHR1) (UniProt Q03431 27-593, limits assumed)
T1 sequence (looked up): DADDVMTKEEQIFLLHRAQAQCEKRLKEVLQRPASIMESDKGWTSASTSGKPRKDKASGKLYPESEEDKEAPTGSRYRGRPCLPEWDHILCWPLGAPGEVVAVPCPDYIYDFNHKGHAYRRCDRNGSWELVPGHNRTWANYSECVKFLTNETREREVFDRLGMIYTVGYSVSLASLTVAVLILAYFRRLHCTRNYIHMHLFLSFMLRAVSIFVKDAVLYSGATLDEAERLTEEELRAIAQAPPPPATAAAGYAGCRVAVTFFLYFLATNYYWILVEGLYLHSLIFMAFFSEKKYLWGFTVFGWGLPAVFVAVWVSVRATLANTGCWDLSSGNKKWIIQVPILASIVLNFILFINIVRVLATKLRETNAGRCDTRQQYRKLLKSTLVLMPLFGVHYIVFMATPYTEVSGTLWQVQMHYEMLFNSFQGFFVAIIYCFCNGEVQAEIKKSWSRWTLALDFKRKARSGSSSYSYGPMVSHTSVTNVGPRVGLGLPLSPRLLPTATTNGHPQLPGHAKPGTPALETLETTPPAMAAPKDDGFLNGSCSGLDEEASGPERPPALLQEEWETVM


Legend:
[1] = target: melanocortin receptor 1 (MC1R) (UniProt Q01726 1-317, limits assumed); test: cell-based or functional assay
PTH receptor 1 (PTHR1) = target: T1, PTH receptor 1 (PTHR1); test: cell-based or functional assay

melanocortin receptor 1 (MC1R), sequence (Q01726 whole entry): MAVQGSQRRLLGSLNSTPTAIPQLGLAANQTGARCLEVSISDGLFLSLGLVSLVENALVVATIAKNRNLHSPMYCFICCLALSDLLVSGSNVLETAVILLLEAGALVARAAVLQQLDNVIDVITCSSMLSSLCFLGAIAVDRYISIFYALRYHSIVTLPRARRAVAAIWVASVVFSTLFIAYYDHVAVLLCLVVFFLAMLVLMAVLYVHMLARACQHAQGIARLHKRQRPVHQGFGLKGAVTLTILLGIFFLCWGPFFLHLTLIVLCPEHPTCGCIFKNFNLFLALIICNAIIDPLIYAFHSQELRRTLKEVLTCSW

| EC50 (nM), MC1R cAMP agonistic assay [1] | EC50 (nM), PTHR1 cAMP agonistic assay (PTH receptor 1 (PTHR1)) | Binder |
| --- | --- | --- |
| 0.14 nM | – | Palmitoyl-HSYSMEHFRWGKPVGKKRRPVKVYP [SEQ ID NO: 226, Pal-HSYSMEHFRWGKPVGKKRRPVKVYP, conjugated gel-forming ACTH1-24 analog] |
| – | 14.1 nM | Palmitoyl-HSYSEIQLMHNLGKHLNSMERVEWLRKKLQDVHNF [SEQ ID NO: 232, Pal-HSYSEIQLMHNLGKHLNSMERVEWLRKKLQDVHNF, gel-forming PTH analog] |
